The target of one assay is T1, NCoR1 (Homo sapiens, UniProt O75376).
T1 construct: endogenous in cells; host or cells: 293T
The assay can be described thus: Immunoprecipitation of sLZIP with anti-NCoR1 antibodies in 293T cells. The assay is classed as binding. Particulars: 10 nM RZD for 24 hours. On the procedure: 293T cells were obtained and washed with cold PBS. The cells were re-suspended in an IP lysis buffer [25 mM of Tris-HCl (pH 7.4), 150 mM of NaCl, 1 mM of EDTA, 1% NP-40 and 5% glycerol, and a protease inhibitor]. A suspension was centrifuged at 16,000×g for 20 minutes at 4° C. Supernatants were collected and incubated with 0.5 μg of appropriate antibodies and 25 μl of protein A/G-agarose or a GST Sepharose 4B bead for 24 hours at 4° C. A protein complex was centrifuged at 1,000×g with a cold IP lysis buffer for 1 minute and washed five times. The final pellet was re-suspended in 50 μl of an SDS-sample buffer containing 5% β-mercaptoethanol and heated for 10 minutes at 100° C. A protein sample was isolated in SDS-PAGE (8 to 10%) and transferred to nitrocellulose membranes. Co-precipitated proteins were detected according to western blotting using specific antibodies.
For this purpose, 293T cells were transfected with GST-PPARγ2 and Flag-sLZIP and were treated or not treated with 10 nM of RZD for 24 hours. […] A protein complex was analyzed in SDS-PAGE, and immunoblotted with anti-GST and anti-Flag antibodies. […] The cell lysates were GST pull-down analyzed (FIG. 5C). […] The cell lysates were GST pull-down analyzed (FIG. 5D). […] A protein complex was analyzed in SDS-PAGE, and then immunoblotted with anti-NCoR1 and anti-Flag antibodies (FIG. 5E). […]

Another assay concerns the target T2, PPARγ2 (Homo sapiens, UniProt P37231).
T2 construct: expressed in transfected cells; host or cells: 293T
T2 sequence (P37231 1-505): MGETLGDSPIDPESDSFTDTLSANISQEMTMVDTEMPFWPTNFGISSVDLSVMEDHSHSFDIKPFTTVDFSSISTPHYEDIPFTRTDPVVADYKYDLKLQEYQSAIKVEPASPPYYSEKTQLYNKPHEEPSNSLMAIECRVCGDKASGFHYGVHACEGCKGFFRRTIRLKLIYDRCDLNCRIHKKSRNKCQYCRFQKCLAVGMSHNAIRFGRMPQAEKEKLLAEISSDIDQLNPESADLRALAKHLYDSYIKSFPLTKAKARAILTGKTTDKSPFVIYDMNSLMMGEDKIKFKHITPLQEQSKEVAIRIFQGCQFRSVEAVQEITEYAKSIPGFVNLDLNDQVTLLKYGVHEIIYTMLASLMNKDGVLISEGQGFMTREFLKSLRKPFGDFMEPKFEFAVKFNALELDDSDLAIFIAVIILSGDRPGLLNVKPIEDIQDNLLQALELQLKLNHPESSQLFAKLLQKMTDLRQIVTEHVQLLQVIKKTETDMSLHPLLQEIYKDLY
The assay can be described thus: Fluorescence microscopy, subcellular localization with PPARγ2 in C3H10T1/2 cells. The assay is classed as cell-based. To be noted: GFP-PPARγ2 and Flag-sLZIP in C3H10T1/2 cells. On the procedure:
C3H10T1/2 cells were transiently ci-transfected with Flag-sLZIP, GFP-PPARγ2 or GFP-sLZIP, and HDAC3 was grown on cover slip. After 24 hours, the cells were fixed with 4% paraformaldehyde for 10 minutes and permeabilized 0.2% Triton-X 100 for 5 minutes. The cells were incubated with 1% BSA for one hour, and then incubated with anti-Flag and anti-HDAC3 antibodies overnight at 4° C. The cells were washed with PBS, and then were incubated with Texas Red-labeled antibodies for 2 hours. A cover slide was washed with PBS, and mounted on and examined using a LSM 510 META confocal microscopy (Carl Zeiss, Jena, Germany).
In order to examine whether the transcriptional activity of PPARγ2 is regulated by interaction with sLZIP, interaction between sLZIP and PPARγ2 was examined. For this purpose, 293T cells were transfected with GST-sLZIP and Myc-PPARγ2. Cell lysates were obtained and GST pull-down analysis was performed using a glutathione 4B bead. A protein complex was analyzed in SDS-PAGE and then immunoblotted with specific antibodies (FIG. 2A). […] Proteins bound to the bead were analyzed in SDS-PAGE, and then immunoblotted with anti-PPARγ2 and anti-His antibodies (FIG. 2C). GFP-PPARγ2 and Flag-sLZIP constructs were expressed in C3H10T1/2 cells, and analyzed using mouse anti-Flag and Texas Red-labeled anti-mouse antibodies under a fluorescence microscope. […]

T1 sequence (O75376 whole entry): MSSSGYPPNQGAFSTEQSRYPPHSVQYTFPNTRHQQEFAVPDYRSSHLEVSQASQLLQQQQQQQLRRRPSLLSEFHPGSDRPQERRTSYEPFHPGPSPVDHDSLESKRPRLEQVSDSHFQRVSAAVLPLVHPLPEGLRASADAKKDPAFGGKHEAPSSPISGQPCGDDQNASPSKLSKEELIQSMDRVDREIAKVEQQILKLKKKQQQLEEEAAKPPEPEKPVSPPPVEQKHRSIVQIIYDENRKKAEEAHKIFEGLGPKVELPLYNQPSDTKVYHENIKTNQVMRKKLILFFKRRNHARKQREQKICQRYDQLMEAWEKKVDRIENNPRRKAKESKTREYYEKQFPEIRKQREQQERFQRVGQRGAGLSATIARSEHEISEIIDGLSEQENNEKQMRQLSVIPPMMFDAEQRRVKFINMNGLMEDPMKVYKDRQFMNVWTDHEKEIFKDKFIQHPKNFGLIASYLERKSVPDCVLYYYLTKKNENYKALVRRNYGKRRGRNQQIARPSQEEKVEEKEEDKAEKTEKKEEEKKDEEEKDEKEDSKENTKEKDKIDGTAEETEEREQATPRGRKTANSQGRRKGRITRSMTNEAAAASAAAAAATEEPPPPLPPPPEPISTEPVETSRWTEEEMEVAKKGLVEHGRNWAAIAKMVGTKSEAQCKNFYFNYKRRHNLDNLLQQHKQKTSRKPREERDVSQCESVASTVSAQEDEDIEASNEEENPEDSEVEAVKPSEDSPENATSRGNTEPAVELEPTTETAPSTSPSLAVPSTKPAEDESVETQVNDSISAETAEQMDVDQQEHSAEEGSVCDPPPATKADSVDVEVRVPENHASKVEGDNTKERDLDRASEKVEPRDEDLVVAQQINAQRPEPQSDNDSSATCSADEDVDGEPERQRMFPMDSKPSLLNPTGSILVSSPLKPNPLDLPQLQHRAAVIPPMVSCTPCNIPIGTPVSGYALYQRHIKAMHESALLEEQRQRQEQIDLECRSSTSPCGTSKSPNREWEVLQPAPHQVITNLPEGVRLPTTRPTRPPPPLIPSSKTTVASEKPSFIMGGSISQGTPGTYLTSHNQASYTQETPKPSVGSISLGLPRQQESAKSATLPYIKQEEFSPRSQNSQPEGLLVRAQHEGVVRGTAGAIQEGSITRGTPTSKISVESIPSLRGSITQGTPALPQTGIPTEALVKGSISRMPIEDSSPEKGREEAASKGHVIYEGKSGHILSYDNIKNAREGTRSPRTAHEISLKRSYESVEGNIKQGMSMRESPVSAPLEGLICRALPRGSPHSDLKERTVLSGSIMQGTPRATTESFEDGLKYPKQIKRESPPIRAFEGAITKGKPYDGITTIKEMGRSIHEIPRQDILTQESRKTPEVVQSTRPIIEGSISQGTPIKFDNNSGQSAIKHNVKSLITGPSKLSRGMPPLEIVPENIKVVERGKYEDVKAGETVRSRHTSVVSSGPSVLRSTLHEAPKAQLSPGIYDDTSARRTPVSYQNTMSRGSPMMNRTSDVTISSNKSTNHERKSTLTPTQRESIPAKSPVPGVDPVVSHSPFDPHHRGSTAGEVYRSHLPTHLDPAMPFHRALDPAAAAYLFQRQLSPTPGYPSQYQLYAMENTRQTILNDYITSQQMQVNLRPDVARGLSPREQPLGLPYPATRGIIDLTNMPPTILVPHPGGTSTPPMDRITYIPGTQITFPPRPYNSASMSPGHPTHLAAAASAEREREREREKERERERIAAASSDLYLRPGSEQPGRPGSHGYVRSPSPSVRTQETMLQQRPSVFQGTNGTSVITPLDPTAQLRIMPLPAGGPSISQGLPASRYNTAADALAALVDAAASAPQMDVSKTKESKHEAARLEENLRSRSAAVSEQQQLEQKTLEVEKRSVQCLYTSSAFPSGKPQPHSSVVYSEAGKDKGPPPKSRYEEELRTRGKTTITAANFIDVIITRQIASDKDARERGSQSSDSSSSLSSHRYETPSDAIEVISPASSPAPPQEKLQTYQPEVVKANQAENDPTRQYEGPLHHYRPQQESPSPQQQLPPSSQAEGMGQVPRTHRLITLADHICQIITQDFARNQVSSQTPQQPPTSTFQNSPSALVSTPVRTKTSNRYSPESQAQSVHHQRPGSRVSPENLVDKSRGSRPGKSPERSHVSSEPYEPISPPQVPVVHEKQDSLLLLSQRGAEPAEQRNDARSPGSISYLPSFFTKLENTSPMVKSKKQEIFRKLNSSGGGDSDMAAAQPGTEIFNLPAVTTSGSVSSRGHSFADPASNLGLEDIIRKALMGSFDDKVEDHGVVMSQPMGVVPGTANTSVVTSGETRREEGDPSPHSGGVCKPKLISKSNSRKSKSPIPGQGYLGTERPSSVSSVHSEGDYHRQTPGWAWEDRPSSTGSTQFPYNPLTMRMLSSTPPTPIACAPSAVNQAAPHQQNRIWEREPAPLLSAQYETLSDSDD

B1: sLZIP: human small leucine-zipper protein, isoform of LZIP, 354 amino acids, no transmembrane domain, GenBank FJ263669, SEQ ID NO: 1 (protein, listed as Homo sapiens)
chain: MELELDAGDQDLLAFLLEESGDLGTAPDEAVRAPLDWALPLSEVPSDWEVDDLLCSLLSPPASLNILSSSNPCLVHHDHTYSLPRETVSMDLESESCRKEGTQMTPQHMEELAEQEIARLVLTDEEKSLLEKEGLILPETLPLTKTEEQILKRVRRKIRNKRSAQESRRKKKVYVGGLESRVLKYTAQNMELQNKVQLLEEQNLSLLDQLRKLQAMVIEISNKTSSSSMYSSDTRGSLPAEHGVLSRQLRALPSEDPYQLELPALQSEVPKDSTHQWLDGSDCVLQAPGNTSCLLHYMPQAPSAEPPLEWPFPDLFSEPLCRGPILPLQANLTRKGGWLPTGSPSVILQDRYSG
As for B1, the “interaction with NCoR1” value in the assay with NCoR1 is “slightly dissociated from sLZIP”. The “subcellular localization of sLZIP and PPARγ2” value in the assay with PPARγ2 is listed as “localized in the nucleus together with PPARγ2”.

(Values after patent US10456446B2, “Use of human small leucine zipper protein in osteogenesis procedure” (Korea University Research and Business Foundation, priority 2013, dated 2019).)
